The target of test [1] is human CD3 (human) (UniProt P07766). Description: FACS staining of Jurkat clone A1, relative to control antibody mIgG1 pacblue.
The target is the same in test [2]. Description: FACS staining of Jurkat clone D7, relative to control antibody mIgG1 pacblue.
Test [3] shares this target. Description: FACS staining of Jurkat clone E6, relative to control antibody mIgG1 pacblue.
The target is the same in test [4]. Description: FACS staining of Jurkat clone F5, relative to control antibody mIgG1 pacblue.
Test [5] has the same target. Description: FACS staining of Jurkat clone G3, relative to control antibody mIgG1 pacblue.
Test [6] shares this target. Description: FACS staining of Jurkat clone H3, relative to control antibody mIgG1 pacblue.
For test [7] the target is unchanged. The experiment in a line: FACS staining of Jurkat clone F11, relative to control antibody mIgG1 pacblue.
For test [8] the target is unchanged. The experiment in a line: FACS staining of Jurkat clone G10, relative to control antibody mIgG1 pacblue.
For test [9] the target is unchanged. Description: FACS staining of Jurkat clone G10 (passage P4), relative to control antibody mIgG1-pacblue.
The target is the same in test [10]. The experiment in a line: FACS staining of Jurkat clone G10 (passage P6), relative to control antibody mIgG1-pacblue.
The target is the same in test [11]. Description: FACS staining of Jurkat clone G10 (passage P12), relative to control antibody mIgG1-pacblue.
For test [12] the target is unchanged. The experiment in a line: FACS staining of Jurkat clone G10 (passage P14), relative to control antibody mIgG1-pacblue.
Test [13] has the same target. The experiment in a line: FACS staining of Jurkat clone G10 (passage P17), relative to control antibody mIgG1-pacblue.
Test [14] shares this target. Description: FACS staining of Jurkat clone G10 (passage ~P3), relative to control antibody mIgG1-pacblue.
For test [15], the target named is T1, human LAG3 (human, UniProt P18627 23-525).
T1 construct: Expressed from a transgene on Jurkat cells
T1 sequence: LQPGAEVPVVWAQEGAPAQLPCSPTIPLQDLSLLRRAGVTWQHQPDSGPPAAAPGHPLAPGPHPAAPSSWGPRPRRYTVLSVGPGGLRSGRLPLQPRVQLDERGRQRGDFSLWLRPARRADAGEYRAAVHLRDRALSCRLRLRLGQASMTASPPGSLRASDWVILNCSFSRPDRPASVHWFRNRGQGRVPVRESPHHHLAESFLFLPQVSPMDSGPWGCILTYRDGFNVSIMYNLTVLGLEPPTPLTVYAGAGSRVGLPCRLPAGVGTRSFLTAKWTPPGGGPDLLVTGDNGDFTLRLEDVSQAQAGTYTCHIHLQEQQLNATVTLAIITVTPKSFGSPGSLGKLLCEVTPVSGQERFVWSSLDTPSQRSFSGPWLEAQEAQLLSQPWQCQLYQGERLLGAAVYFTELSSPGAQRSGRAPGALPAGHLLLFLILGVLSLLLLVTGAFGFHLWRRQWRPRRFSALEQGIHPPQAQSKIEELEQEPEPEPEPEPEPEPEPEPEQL
Description: FACS staining of human LAG3 Jurkat clone G10 (passage P4), relative to control antibody Herceptin-DyLight 650.

The target in test [16] is T1, human LAG3. Description: FACS staining of human LAG3 Jurkat clone G10 (passage P6), relative to control antibody Herceptin-DyLight 650.
Test [17] concerns the target T1, human LAG3. The experiment in a line: FACS staining of human LAG3 Jurkat clone G10 (passage P12), relative to control antibody Herceptin-DyLight 650.
For test [18], the target named is T1, human LAG3. The experiment in a line: FACS staining of human LAG3 Jurkat clone G10 (passage P14), relative to control antibody Herceptin-DyLight 650.
Test [19] concerns the target T1, human LAG3. The experiment in a line: FACS staining of human LAG3 Jurkat clone G10 (passage P17), relative to control antibody Herceptin-DyLight 650.
Test [20] has as its target T1, human LAG3. Description: FACS staining of human LAG3 Jurkat clone G10 (passage ~P3), relative to control antibody Herceptin-DyLight 650.

Sequence of human CD3 (human) (P07766 23-207): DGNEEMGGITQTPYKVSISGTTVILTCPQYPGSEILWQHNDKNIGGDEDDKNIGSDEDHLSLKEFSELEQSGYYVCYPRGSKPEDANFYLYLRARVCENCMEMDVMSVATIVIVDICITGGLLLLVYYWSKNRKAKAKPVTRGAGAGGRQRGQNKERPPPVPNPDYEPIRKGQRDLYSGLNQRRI

In the case of “maHuCD3 pacblue (mouse anti-human CD3E antibody Clone SP34-2)”, the CD3 expression (Fold Change) in test [1] came to 3.5 fold; in [2], 3.4 fold; in test [3] it was 8.5 fold; in test [4], 7.5 fold; in test [5], 5.3 fold; in [6] it was 5 fold. For the same molecule, the CD3 expression (Fold Change) in test [7] came out at 3.9 fold; in test [8], 8.4 fold; in [9] it was 7.2 fold; in [10] it was 8 fold; in test [11], 6.4 fold; in [12], 6.9 fold. In addition, the CD3 expression (Fold Change) in test [13] worked out at 4.7 fold; in [14] it was 10.9 fold.

B1: Ab6: humanized anti-human LAG3 VH6 N55D/VL3, IgG4 S228P/Kappa (antibody, V domains shown)
VH: QMQLVQSGPEVKKPGTSVKVSCKASGYTFTDYNVDWVRQARGQRLEWIGDINPNDGGTIYAQKFQERVTITVDKSTSTAYMELSSLRSEDTAVYYCARNYRWFGAMDHWGQGTTVTVSS
VL: DIVMTQTPLSLSVTPGQPASISCKASQSLDYEGDSDMNWYLQKPGQPPQLLIYGASNLESGVPDRFSGSGSGTDFTLKISRVEAEDVGVYYCQQSTEDPRTFGGGTKVEIKR
notes: also called 51AHH; light chain 45AGX
As for B1, the “Lag3 Expression (Fold Change)” value is 5.6 fold in test [15]; 2 fold in test [16]; 7.3 fold in [17]; 7.2 fold in [18]; 7.3 fold in [19]; 6.1 fold in test [20].
